Tests used:
[1] = target: PD-1 on T cells (species not stated in these experiments)
[2] = target: PD-1 on T cells (species not stated in these experiments); remark: listed apart in the source
[3] = target: PD-1 on T cells (species not stated in these experiments); remark: listed apart in the source
[4] = target: human PD-1 on human T cells or Jurkat T cells (human)
[5] = target: human PD-1 on human T cells or Jurkat T cells (human); remark: listed apart in the source
[6] = target: human PD-1 on human T cells or Jurkat T cells (human); remark: listed apart in the source
[7] = target: human PD-1 gamma 2a fusion protein (human PD-1 extracellular region fused to murine Ig gamma2a hinge-CH2-CH3) (human; murine) [IgG part: P01863]; assay: ELISA: biotinylated PD-L1Fc on immobilized human PD-1Fc, streptavidin-HRP
[8] = target: murine PD-1 on mouse T cells (Balb/c LN T cells, DO11.10 CD4+ T cells, TCR transgenic LN T cells) (murine) (UniProt Q02242)

## PD-L1.Fc (species not stated in these experiments) (Fc fusion)
[1]
  % CD69+ T cells (flow cytometry), 72 hours: 42 % CD69+
[2]
  % IL-2R+ (CD25) T cells (flow cytometry), 79 hours: 15 % IL-2R+
[3]
  % apoptotic T cells (propidium iodide and annexin positive), 72 hours: 12 % apoptotic

## human PD-L1.Ig (extracellular region of human PD-L1 fused to murine Ig gamma2a hinge-CH2-CH3) (from UniProt P01863) (Fc fusion)
[4]
  proliferation (3H-thymidine) of human CD4+ T cells, 96 hours: 69 % decrease
[5]
  IL-10 secretion (ELISA) by human CD4+ T cells: 60 % decrease
  interferon-γ secretion (ELISA) by human CD4+ T cells: 80 % decrease
[6]
  proliferation of human CD4+ T cells, suboptimal anti-CD3 (1 µg/ml) with soluble anti-CD28: 80 % reduction
[7]
  ED50: 0.108 µg/mL

## mPD-L1.Fc fusion protein
[8]
  percentage of dividing cells by propidium iodide staining (DNA content), day 4 (% dividing cells): 11
